{
  "source": "paper PMC5389655",
  "key": {"[1]": {"biological_target": "Escherichia coli core RNA polymerase, assembled into synthetic transcription elongation complexes (TECs) (E. coli) (UniProt P0A8V2)", "sequence (P0A8V2 whole entry, looked up, one chain of several)": "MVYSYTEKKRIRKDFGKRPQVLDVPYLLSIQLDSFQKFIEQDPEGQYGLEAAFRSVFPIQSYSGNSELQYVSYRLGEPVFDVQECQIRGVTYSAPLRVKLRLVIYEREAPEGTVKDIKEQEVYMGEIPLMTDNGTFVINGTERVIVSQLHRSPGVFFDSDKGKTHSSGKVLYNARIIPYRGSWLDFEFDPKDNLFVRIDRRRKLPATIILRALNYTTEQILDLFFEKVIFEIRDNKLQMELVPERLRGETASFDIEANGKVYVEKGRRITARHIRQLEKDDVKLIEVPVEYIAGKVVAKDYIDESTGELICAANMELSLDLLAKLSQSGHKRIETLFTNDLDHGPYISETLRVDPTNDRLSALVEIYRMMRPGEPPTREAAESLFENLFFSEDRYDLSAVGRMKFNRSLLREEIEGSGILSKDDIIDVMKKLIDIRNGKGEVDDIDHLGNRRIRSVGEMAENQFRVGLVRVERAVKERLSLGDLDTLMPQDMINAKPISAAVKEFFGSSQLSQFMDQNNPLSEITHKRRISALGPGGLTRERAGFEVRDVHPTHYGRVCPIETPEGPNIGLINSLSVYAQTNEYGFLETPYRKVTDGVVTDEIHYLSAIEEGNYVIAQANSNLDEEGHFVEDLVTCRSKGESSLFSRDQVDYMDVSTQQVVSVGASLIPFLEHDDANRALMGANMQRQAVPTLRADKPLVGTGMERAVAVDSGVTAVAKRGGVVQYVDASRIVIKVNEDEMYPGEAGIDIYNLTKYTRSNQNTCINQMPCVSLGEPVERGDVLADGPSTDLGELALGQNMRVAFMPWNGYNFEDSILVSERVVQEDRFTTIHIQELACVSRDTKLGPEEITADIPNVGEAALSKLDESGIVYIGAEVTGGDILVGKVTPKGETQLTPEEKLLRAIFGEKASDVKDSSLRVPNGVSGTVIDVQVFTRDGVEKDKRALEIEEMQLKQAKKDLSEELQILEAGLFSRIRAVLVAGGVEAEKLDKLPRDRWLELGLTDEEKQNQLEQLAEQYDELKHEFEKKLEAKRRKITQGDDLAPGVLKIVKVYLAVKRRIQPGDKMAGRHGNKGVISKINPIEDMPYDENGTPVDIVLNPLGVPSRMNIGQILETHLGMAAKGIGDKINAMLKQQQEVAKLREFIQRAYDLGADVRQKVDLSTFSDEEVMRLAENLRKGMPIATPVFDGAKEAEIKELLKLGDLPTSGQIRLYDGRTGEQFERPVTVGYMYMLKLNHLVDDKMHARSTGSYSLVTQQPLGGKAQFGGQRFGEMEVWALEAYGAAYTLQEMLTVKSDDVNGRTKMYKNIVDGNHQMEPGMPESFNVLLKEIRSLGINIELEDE", "test": "native gel or EMSA"}, "[2]": {"biological_target": "Escherichia coli core RNA polymerase, assembled into synthetic transcription elongation complexes (TECs) (E. coli) (UniProt P0A8V2)", "test": "native gel or EMSA", "remark": "listed apart in the source"}, "[3]": {"biological_target": "Escherichia coli core RNA polymerase, assembled into synthetic transcription elongation complexes (TECs) (E. coli) (UniProt P0A8V2)"}, "[4]": {"biological_target": "Escherichia coli core RNA polymerase, assembled into synthetic transcription elongation complexes (TECs) (E. coli) (UniProt P0A8V2)", "test": "[…]) at 10 nM, […]"}},
  "data": [
    {"substance": "Escherichia coli σ^38 subunit (stationary phase and stress response σ factor) (from UniProt P13445 1-330) (natural protein)", "values": [
      {"measurement": "Kd", "setting": "[1]", "value": 0.9, "unit": "µM"},
      {"measurement": "Kd", "setting": "[2]", "value": "> 10", "unit": "µM"},
      {"measurement": "Kd from pausing efficiency in the transcription assay on the '-TG' TEC variant", "setting": "[3]", "value": 0.525, "unit": "µM"},
      {"measurement": "Kd", "setting": "[4]", "value": 0.33, "unit": "µM"}
    ]}
  ]
}
